# Results taken from patent publication CN111018982A (DONGGUAN PENGZHI BIOTECHNOLOGY CO LTD, dated 2020).
# Like-named read-outs stand apart in the source and are kept apart here.
# Tests used:
# cTnI质控品重组抗原 [1] = molecular target: T1, cTnI质控品重组抗原 (human, UniProt P19429 1-210, limits assumed); experiment: BLI, antibody captured on AMC sensor, cTnI recombinant protein in solution
# T1 construct: 人cTnI蛋白); also called cTnI质控品重组蛋白(公司自产重组抗原); 心肌肌钙蛋白I
# cTnI质控品重组抗原 [2] = molecular target: T1, cTnI质控品重组抗原; experiment: as above; remark: listed apart in the source
# T1 sequence (P19429 whole entry): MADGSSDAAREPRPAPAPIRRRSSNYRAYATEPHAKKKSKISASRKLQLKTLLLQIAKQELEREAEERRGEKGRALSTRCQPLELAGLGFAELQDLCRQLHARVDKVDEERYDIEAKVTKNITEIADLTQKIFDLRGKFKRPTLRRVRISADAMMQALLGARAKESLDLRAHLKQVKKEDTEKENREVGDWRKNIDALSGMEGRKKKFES
Binder,Kd (cTnI质控品重组抗原 [1]),koff (cTnI质控品重组抗原 [1]),kon (cTnI质控品重组抗原 [1]),Kd (cTnI质控品重组抗原 [2]),koff (cTnI质控品重组抗原 [2]),kon (cTnI质控品重组抗原 [2])
"Anti-cTnI 3C7 重组抗体 (WT) (antibody, V domains shown) VH: EVKLDETGGGLVQPGRPMKLSCIASGATFSGYWMQWVRQSPEKGLEWVAQLRNGPYDFDTFYSDSVKDRFTISRDDSKSVYLQMNNLRAEDMGIYYCTPHFVHWGQGTLVTVSA VL: DIVMTQSPSSLSVSEGEKVTLRCKSSNSLFNSGNQQNYLAWYQQKPGQPPKLLIYGPSTREFGVPDRFTGSGSGTDFTLISNVQEDLAVYYCQTDRTSAYTFGGGTKLEIK",33.5 nM,0.00018 s⁻¹,5360 M⁻¹ s⁻¹,33.5 nM,0.00018 s⁻¹,5360 M⁻¹ s⁻¹
"WT 1-22 (antibody, V domains shown) VH: EVQLQQSGPELVKPGASVKMSCKASGYSFTLYVLHWVKQKPGQGLEWIGYIYPYIDGTRYNEKFKGKATLTVDKSSSTAFMELSSLTSEDSAVYYCARTGYGNYGLAWLAYWGQGTLVTVSA VL: QAVVIQESALTTSPGETVTLTCRSSSGAVTTSQYANWVQEKPDHLFTGLIGGSNNRVPGVPARFSGSLIGDKAALTITGAQTEDEAIYFCAIVYSNNWVFGGGTKLTVLG",47.8 nM,0.000308 s⁻¹,6450 M⁻¹ s⁻¹,,,
"WT 1-5 (antibody, V domains shown) VH: QVQLQQSGTELAKPGASVKFSCKASDYTFSSYWMYWIKQRPGQGLEWIGYLNPSTGHTEYNQKFKDKATLTADKSSSTAYMQLNSLTSEDSAVYYCARKYWGPFAMDYWGQGTSVTVSS VL: EIFLTQSPAIMSASPGEKVTMTCSASSSVSYAHWYQQKSGTSPKRWIYDSSKIASGIPVRFSGSGSGTSYSLTISSMEAEDAATYYCQNWSTNPYTFGGGTKLEIKR",80.6 nM,0.000533 s⁻¹,6610 M⁻¹ s⁻¹,,,
